We go through four molecules from patent US20220098319A1 (SHANGHAI PHARMAEXPLORER, published 2022).

Where two headings read alike, the source gives them in different places.

The target of experiment [1] is T1, cynomolgus monkey CD73 (on transfected CHOK1 cells) (cynomolgus monkey, UniProt A0A2K5V5U7 27-549).
T1 construct: whole, on cells; also called CHOK1-cCD73; CHOK1-CCD73
T1 sequence: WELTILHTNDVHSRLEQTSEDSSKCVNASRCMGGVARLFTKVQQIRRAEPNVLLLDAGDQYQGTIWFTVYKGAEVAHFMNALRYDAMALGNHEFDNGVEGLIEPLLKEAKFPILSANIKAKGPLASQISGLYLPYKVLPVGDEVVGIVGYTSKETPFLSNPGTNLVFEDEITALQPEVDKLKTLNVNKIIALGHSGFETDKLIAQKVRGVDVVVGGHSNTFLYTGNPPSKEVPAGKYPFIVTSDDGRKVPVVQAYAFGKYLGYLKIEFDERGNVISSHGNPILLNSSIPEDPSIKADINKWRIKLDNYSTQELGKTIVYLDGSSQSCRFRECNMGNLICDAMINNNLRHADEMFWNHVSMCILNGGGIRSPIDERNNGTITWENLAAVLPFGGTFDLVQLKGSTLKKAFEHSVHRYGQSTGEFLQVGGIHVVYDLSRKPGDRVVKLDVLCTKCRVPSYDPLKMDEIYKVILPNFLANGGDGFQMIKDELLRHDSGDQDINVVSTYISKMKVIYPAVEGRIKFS
Briefly: FACS on CHOK1-cCD73 cells.

Experiment [2] deals with T2, human CD73 (full length, on transfected CHOK1 cells) (human, UniProt P21589 27-549).
T2 sequence (looked up): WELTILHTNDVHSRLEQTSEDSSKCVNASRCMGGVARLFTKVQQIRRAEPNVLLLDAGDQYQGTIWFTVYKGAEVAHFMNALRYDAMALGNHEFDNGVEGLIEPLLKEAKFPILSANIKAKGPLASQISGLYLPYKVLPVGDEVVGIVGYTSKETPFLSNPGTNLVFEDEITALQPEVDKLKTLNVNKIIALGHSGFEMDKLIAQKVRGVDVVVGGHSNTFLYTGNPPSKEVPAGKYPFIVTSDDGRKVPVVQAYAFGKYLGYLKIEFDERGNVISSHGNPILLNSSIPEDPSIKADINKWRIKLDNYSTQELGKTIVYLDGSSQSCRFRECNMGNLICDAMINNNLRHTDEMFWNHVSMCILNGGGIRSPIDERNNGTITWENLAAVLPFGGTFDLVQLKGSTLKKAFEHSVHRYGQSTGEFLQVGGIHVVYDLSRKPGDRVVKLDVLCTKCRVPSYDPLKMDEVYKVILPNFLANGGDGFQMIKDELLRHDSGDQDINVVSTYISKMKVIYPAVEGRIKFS
Briefly: cell-based or functional assay.

Experiment [3] addresses T2, human CD73 (full length, on transfected …). The experiment is described as follows: FACS on CHOK1-hCD73 cells. How it is done:
The titration binding curve was produced by the following method:
The CHOK1 stable cell line transfected with human CD73 was expanded to a 75-90% confluence in a T-75 cell culture flask. The medium was aspirated, washed 1-2 times with PBS, and then treated with trypsin (Tryple express: Life technology) and cells were collected. The cells were washed with PBS buffer for 1-2 times. After counted, the cells were diluted with PBS to 1-2×10⁶ cells per ml, added with 1% fetal bovine serum (FBS) blocking solution, incubated on ice for 20-30 minutes, and then washed twice with HBSS by centrifugation. The collected cells were suspended with FACS buffer (PBS+2% FBS) to 2×10⁶ cells/ml, added to a 96-well FACS reaction plate at 100 microliters per well, and centrifuged at 300 g for 5 minutes to discard the supernatant. Anti-CD73 antibody was prepared with blocking solution to an initial concentration of 10 ug/ml and serially diluted at 8 points. 100 microliter per well of that antibody sample to be tested were added and incubated at 4° C. for 1-2 hours. […] The plate was washed 2-3 times with FACS buffer by centrifugation, added with 100 μl fixative solution (4% Paraformaldehyde) per well to suspend the cells. 5-10 minutes later, it was washed 1-2 times with FACS buffer by centrifugation. The cells were suspended with 100 microliters of FACS buffer, FACS (FACSCalibur, BD) was used for detection and the results were analyzed, as shown in FIG. 1 and Table 4.

The target in experiment [4] is T3, murine CD73 (on transfected CHOK1 cells) (mouse, UniProt Q61503 29-551).
T3 construct: whole, on cells; also called CHOK1-mCD73; mCD73
T3 sequence (looked up): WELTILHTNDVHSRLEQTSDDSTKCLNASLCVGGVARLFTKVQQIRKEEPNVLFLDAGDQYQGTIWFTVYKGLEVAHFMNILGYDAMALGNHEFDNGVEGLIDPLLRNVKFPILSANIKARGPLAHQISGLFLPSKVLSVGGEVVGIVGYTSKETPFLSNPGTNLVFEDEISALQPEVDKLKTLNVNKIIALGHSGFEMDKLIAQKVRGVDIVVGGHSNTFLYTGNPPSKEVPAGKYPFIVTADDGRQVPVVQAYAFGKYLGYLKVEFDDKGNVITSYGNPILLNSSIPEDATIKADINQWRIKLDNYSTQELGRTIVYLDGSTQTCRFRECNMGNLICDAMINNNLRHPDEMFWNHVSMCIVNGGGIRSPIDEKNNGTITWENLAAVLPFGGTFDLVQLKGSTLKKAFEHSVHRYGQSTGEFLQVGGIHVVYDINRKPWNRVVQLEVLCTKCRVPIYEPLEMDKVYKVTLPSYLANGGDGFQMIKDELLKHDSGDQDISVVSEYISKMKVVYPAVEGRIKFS
Briefly: FACS on CHOK1-mCD73 cells.

Experiment [5] deals with T2, human CD73 (full length, on transfected …). The experiment is described as follows: cell-based or functional assay. This is another data set of the same source.
The target in experiment [6] is T1, cynomolgus monkey CD73 (on transfected …). The experiment is described as follows: FACS on CHOK1-cCD73 cells. This is another data set of the same source.
In experiment [7] the target is T4, His-tagged CD73 extracellular domain protein (hCD73 ECD-His) (human, UniProt P21589 27-547).
T4 construct: Expressed in CHO cells from pTT5-hCD73 ECD-His6, purified on nickel column; also called hCD73 ECD-His6; human CD73 ECD
T4 sequence: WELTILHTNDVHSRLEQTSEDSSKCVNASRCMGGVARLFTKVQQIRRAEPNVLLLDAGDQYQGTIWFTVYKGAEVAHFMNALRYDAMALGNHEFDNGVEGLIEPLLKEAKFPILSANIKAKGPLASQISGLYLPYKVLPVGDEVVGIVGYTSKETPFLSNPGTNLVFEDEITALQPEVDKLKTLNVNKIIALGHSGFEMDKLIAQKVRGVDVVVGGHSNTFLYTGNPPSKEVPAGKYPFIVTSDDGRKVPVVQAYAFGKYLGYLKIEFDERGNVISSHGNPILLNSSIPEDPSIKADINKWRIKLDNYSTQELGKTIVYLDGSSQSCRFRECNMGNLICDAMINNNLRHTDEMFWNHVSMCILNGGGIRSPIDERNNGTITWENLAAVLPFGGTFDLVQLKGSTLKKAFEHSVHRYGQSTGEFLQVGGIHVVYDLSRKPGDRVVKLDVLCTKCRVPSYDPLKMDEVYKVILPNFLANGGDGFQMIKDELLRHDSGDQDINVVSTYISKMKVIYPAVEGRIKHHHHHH
The experiment is described as follows: Octet BLI, antibody on AHC sensor, antigen 50-200 nM, 1:1 fit. The text has this: Octet Red 96 was selected as the test instrument, and AHC biosensor was selected as the test sensor in this experiment. Anti-human IgG Fc antibody has been immobilized on the AHC sensor, which can be used to directly capture the 15 antibodies in this experiment. Then the sensor was immersed in the analysis sample (antigen). There were five steps in this experiment: 1, Baseline (120 s) 2, Loading (capture antibody) (300 s) 3, Baseline (120 s) 4, Association (binding antigen) (180 s) 5, Dissociation (antigen dissociation) (1200 s). After the test was completed, the regeneration buffer (Glycine PH1.5) and the neutralization buffer (1*PBS buffer) were alternately immersed for 5 seconds, and the sensor was regenerated by a total of five cycles. The maximum number of sensor regeneration times is 10. The running buffer in this experiment is the sample diluent (1*PBS buffer containing 0.02% Tween20 and 0.1% BSA), that is, the buffer used in the Baseline step, the Dissociation step, and the blank analyte sample. Four sensors are used at one running in this experiment.
Sample treatment: all the antibodies were diluted to the working concentration of 10 ug/ml with sample diluent (1*PBS buffer containing 0.02% Tween20 and 0.1% BSA), and the analyte samples (antigens) were diluted to three working concentrations: 200 nM, 100 nM and 50 nM.
For data analysis, Octet Data Analysis (version 7.0) was used to calculate the response signal value (the signal of the coupled analyte sample minus the signal of the blank analyte sample), and a 1:1 binding model was used to fit the data.
For orientation: In BLI a coated tip is dipped into the sample, and binding shifts an interference pattern.

The target in experiment [8] is T2, human CD73 (full length, on transfected …). Briefly: FACS on CHOK1-hCD73 cells.
The target of experiment [9] is T3, murine CD73 (on transfected CHOK1 cells). Briefly: FACS on CHOK1-mCD73 cells. This is another data set of the same source.

B1: mAb030 (clone 42A5A7), murine anti-CD73 antibody (antibody, V domains shown)
VH: DIQLQESGPGLVKPSQSLSLTCSVTGYSITSRYYWNWIRQFPGNKLEWMGYITYDDNNNYNPSLKNRISITRDTSKNQFFLKLNSVTPEDTATYYCARGGWDPFLYWGQGTLVTVSA
VL: DIQMTQSPASLSASVGETVTITCRASDNIYSYLAWYQQKQGKSLQLLVDSAKNLGEGVPSRFSGSGSGTQFYLKINSLQPEDFGVYYCQHYYGTPFTFGGGTKLELK
notes: Purified from hybridoma supernatant; also called antibody 030
The EC50 is the midpoint of the concentration-response curve. Take B1: in [1], the response was half-maximal at 0.4 nM (EC50) and the “MAX MFI” value came to 6310 MFI. In experiment [2], the “Enzyme activity blocking assay, IC50” value was 0.1 nM and the “Enzyme activity blocking assay, MAX % inhibition” value turned out to be 74.6%. In experiment [3], the EC50 was determined as 0.9 nM and the “MAX MFI” value was 6440 MFI. Besides, the binding result in experiment [4] was “no binding (tested: 10 ug/ml initial concentration)”.

B2: mab032xhIgG1TM (clone 56F12H8), mouse-human chimeric anti-CD73 antibody (antibody, V domains shown)
VH: EVQLVESGGDLVKPGGSLKLSCAASGFTFSTHGMSWVRQTPDKRLEWVAIISSDRSDIDYTDNVKGRFTISRDNGKNTLYLQMSSLKSEDTAIYHCARHRGYDGFYYAMDYWGQGTSVTVSS
VL: DILMTQSPSSLTVTAGEKVTMSCRSSQSLLNSGNQKNYLTWYQQRPGRPPKLLIYWASTRISGVPDRFAGSGSGTDFTLTISIVQAEDLAVYYCQNDYSYPLTFGSGTKLELR
notes: also called mAb032 chimeric antibody
As a reminder, the Kd is the constant that tells how readily two partners part at equilibrium. The koff is the first-order rate constant of dissociation. Usually kon stands for the rate constant with which the complex forms. In the case of B2, in experiment [5], the “Inhibition assay of enzyme activity, IC50” value is 0.3 nM and the “Inhibition assay of enzyme activity, MAX % inhibition” value was found to be 65.1%. In experiment [6], the EC50 came to 2.6 nM and the “MAX MFI fold” value was 167 fold. Further, in experiment [7], the affinity, expressed as Kd, was 0.279 nM; the koff is 1.95e-05 s⁻¹; the kon came out at 70000 M⁻¹ s⁻¹. Besides, in experiment [8], it took 3.2 nM to reach a half-maximal effect (EC50) and the “MAX MFI fold” value worked out at 130 fold. In addition, the binding result in experiment [9] was “no binding”.

B3: mAb032 (clone 56F12H8), murine anti-CD73 antibody (antibody, V domains shown)
VH: EVQLVESGGDLVKPGGSLKLSCAASGFTFSTHGMSWVRQTPDKRLEWVAIISSDRSDIDYTDNVKGRFTISRDNGKNTLYLQMSSLKSEDTAIYHCARHRGYDGFYYAMDYWGQGTSVTVSS
VL: DILMTQSPSSLTVTAGEKVTMSCRSSQSLLNSGNQKNYLTWYQQRPGRPPKLLIYWASTRISGVPDRFAGSGSGTDFTLTISIVQAEDLAVYYCQNDYSYPLTFGSGTKLELR
notes: Purified from hybridoma supernatant
With B3, in experiment [1], the EC50 was 0.7 nM and the “MAX MFI” value turned out to be 6050 MFI. In addition, in [2], the “Enzyme activity blocking assay, IC50” value was determined as 1.2 nM and the “Enzyme activity blocking assay, MAX % inhibition” value is 66.9%. In [3], a half-maximal response (EC50) required 2.6 nM and the “MAX MFI” value was determined as 7660 MFI. The binding result in [4] is given as “no binding (tested: 10 ug/ml initial concentration)”.

B4: mab020xhIgG1TM (clone 24D6B4), mouse-human chimeric anti-CD73 antibody (antibody, V domains shown)
VH: EVQLQQSGPELVKPGASVKIPCKASGYTFTDYNMDWVKQRHGKSLEWIGDINPNNGGTVYNQKFKGKATLTVDKSSNTAYMELRSLTSEDTAVYYCARISGTGYWYFDVWGTGTTVTVSS
VL: DIQMTQSPASLSVSVGETVTITCRASENIYSNLAWYQQKQGKSPQLLVYGATNLADGVPSRFSGSDSGTQYSLKINSLQSEDFGSYYCQHFWGTPWTFGGGTKLEIK
notes: also called mAb020 chimeric antibody
On to B4, for which, in experiment [5], the “Inhibition assay of enzyme activity, IC50” value was found to be 0.6 nM and the “Inhibition assay of enzyme activity, MAX % inhibition” value turned out to be 57.7%. In experiment [6], it took 0.7 nM to reach a half-maximal effect (EC50) and the “MAX MFI fold” value was found to be 124 fold. Besides, in experiment [7], the Kd is 0.0751 nM, the koff is 1.91e-05 s⁻¹ and the kon stood at 255000 M⁻¹ s⁻¹. Besides, in experiment [8], it took 1.6 nM to reach a half-maximal effect (EC50) and the “MAX MFI fold” value was found to be 126 fold. Also, the binding result in experiment [9] is listed as “no binding”.
